Reference: paper PMC4414246

Experiments:
Assay in all cases: fluorescence polarization
U1A N15A = U1A N15A (UniProt P09012 10-89, N15A)
U1A L49S = U1A L49S (UniProt P09012 10-89, L49S)
U1A L49A:N15V = U1A L49A:N15V (UniProt P09012 10-89, N15V;L49A)
U1A L49A:E19A = U1A L49A:E19A (UniProt P09012 10-89, E19A;L49A)
U1A E19A:Y13Q = U1A E19A:Y13Q (UniProt P09012 10-89, Y13Q;E19A)
dK50dM51 N16A = dK50dM51 N16A (UniProt P09012 10-89, N16A;del50-51)
dK50dM51 N15A = dK50dM51 N15A (UniProt P09012 10-89, N15A;del50-51)
U1A E19S:F56A = U1A E19S:F56A (UniProt P09012 10-89, E19S;F56A)
dK50dM51 E19A = dK50dM51 E19A (UniProt P09012 10-89, E19A;del50-51)
U1A N16A = U1A N16A (UniProt P09012 10-89, N16A)
U1A M51S = U1A M51S (UniProt P09012 10-89, M51S)
U1A M51A:E19A = U1A M51A:E19A (UniProt P09012 10-89, E19A;M51A)
U1A S46A = U1A S46A (UniProt P09012 10-89, S46A)
U1A M51A:N15V = U1A M51A:N15V (UniProt P09012 10-89, N15V;M51A)
U1A E19F:N15V = U1A E19F:N15V (UniProt P09012 10-89, N15V;E19F)
U1A L49K = U1A L49K (UniProt P09012 10-89, L49K)
U1A K50A = U1A K50A (UniProt P09012 10-89, K50A)
dK50dM51 E19N = dK50dM51 E19N (UniProt P09012 10-89, E19N;del50-51)
U1A M51A = U1A M51A (UniProt P09012 10-89, M51A)
U1A E19F = U1A E19F (UniProt P09012 10-89, E19F)
U1A E19A:F56A = U1A E19A:F56A (UniProt P09012 10-89, E19A;F56A)
dK50dM51 S48A = dK50dM51 S48A (UniProt P09012 10-89, S48A;del50-51)
dK50dM51 E19S = dK50dM51 E19S (UniProt P09012 10-89, E19S;del50-51)
U1A E19S:N15V = U1A E19S:N15V (UniProt P09012 10-89, N15V;E19S)

B1: TAR RNA (structured_RNA)
RNA: GGCAGAUCUGAGCCUGGGAGCUCUCUGCC
Work on B1 yielded a Kd (U1A N15A) of 11.7 ± 0.9 µM, a Kd (U1A L49S) of 12.4 ± 2.3 µM and a Kd (U1A L49A:N15V) of 39.2 ± 9.6 µM. It also gave a Kd (U1A L49A:E19A) of 6.9 ± 0.8 µM, a Kd (U1A E19A:Y13Q) of 21.7 ± 5.3 µM and a Kd (dK50dM51 N16A) of 62.1 ± 5.4 µM. The Kd (dK50dM51 N15A) was 91.1 ± 8.8 µM, the Kd (U1A E19S:F56A) was 19.2 ± 1.4 µM and the Kd (dK50dM51 E19A) was 10.2 ± 2.2 µM. It also gave a Kd (U1A N16A) of 8.8 ± 1.4 µM, a Kd (U1A M51S) of 29.9 ± 5.7 µM and a Kd (U1A M51A:E19A) of 14.9 ± 2.5 µM. For the same binder, the Kd (U1A S46A) was 15.1 ± 2.6 µM, the Kd (U1A M51A:N15V) was 46 ± 13.4 µM and the Kd (U1A E19F:N15V) was 19 ± 2.5 µM. For the same binder, the Kd (U1A L49K) was 3.9 ± 0.4 µM, the Kd (U1A K50A) was 39.6 ± 12.2 µM and the Kd (dK50dM51 E19N) was 27.8 ± 3.2 µM. It also gave a Kd (U1A M51A) of 4.9 ± 0.6 µM, a Kd (U1A E19F) of 6.2 ± 0.8 µM and a Kd (U1A E19A:F56A) of 29.2 ± 6.3 µM. For the same binder, the Kd (dK50dM51 S48A) was 33.9 ± 15.9 µM, the Kd (dK50dM51 E19S) was 7 ± 1.9 µM and the Kd (U1A E19S:N15V) was 11.3 ± 0.8 µM.
